Biological target: full-length WT JR-FL (gp160) Env (JR-FL WT) (HIV-1 isolate JR-FL (subtype B), UniProt P20871 32-848)
Experiment: cell-based or functional assay

B1: MAb 2G12 (antibody, V domains shown)
VH: EVQLVESGGGLVKAGGSLILSCGVSNFRISAHTMNWVRRVPGGGLEWVASISTSSTYRDYADAVKGRFTVSRDDLEDFVYLQMHKMRVEDTAIYYCARKGSDRLSDNDPFDAWGPGTVVTVSP
VL: VVMTQSPSTLSASVGDTITITCRASQSIETWLAWYQQKPGKAPKLLIYKASTLKTGVPSRFSGSGSGTEFTLTISGLQFDDFATYHCQHYAGYSATFGQGTRVEIKR
neutralization of Env-pseudotyped virus infectivity (U87.CD4.CCR5 cells), mean IC50: 1.6 mg/L
